Results as given in article PMC11004252, “Cooperative interaction of interferon regulatory factor -1 and bromodomain—containing protein 4 on RNA polymerase activation for intrinsic innate immunity” (Frontiers in Immunology, 2024).

Target: T1, Bromodomain containing protein 4 (BRD4) (human (endogenous in hSAECs), UniProt O60885 1-1362)
T1 construct: BRD4, endogenous in hSAECs; detected in situ with rabbit BRD4 Ab (Cell Signaling 13440); also called BRD4 CRC; source: endogenous, hSAECs (fixed cells, mock or RSV infected)
Experiment: proximity ligation; Duolink in situ PLA, mouse anti-IRF1 and rabbit anti-BRD4 Abs, fixed hSAECs, RSV infected (MOI 1, 24 h), with solvent (DMSO) or BRD4i ZL0454 (complex unaffected by BRD4i)
Conditions: partners not purified

B1: interferon regulatory factor 1 (IRF1) (natural protein, human (endogenous in hSAECs), UniProt P10914 1-325, looked up)
chain: MPITRMRMRPWLEMQINSNQIPGLIWINKEEMIFQIPWKHAAKHGWDINKDACLFRSWAIHTGRYKAGEKEPDPKTWKANFRCAMNSLPDIEEVKDQSRNKGSSAVRVYRMLPPLTKNQRKERKSKSSRDAKSKAKRKSCGDSSPDTFSDGLSSSTLPDDHSSYTVPGYMQDLEVEQALTPALSPCAVSSTLPDWHIPVEVVPDSTSDLYNFQVSPMPSTSEATTDEDEEGKLPEDIMKLLEQSEWQPTNVDGKGYLLNEPGVQPTSVYGDFSCKEEPEIDSPGGDIGLSLQRVFTDLKNMDATWLDSLLTPVRLPSIQAIPCAP
notes: IRF1, endogenous in telomerase-immortalized human small airway epithelial cells (hSAECs); detected in situ with mouse IRF1 Ab (R&D MAB4830-SO); source: endogenous, hSAECs (fixed cells, mock or RSV infected)
For B1, the “fold increase of PLA complex, RSV against mock” value was 25 fold.
